From patent US20250144199A1 (UNIVERSITY OF MARYLAND COLLEGE PARK, published 2025)

Biological target: T1, tandem RBDs-Fc fusion protein (SARS-CoV-2 RBDs-Fc, FIG. 8C)
T1 construct: also called RBDs-IgG Fc; tandem RBD-Fc
Assay: ELISA, biotinylated C1q on coated protein

B1: mouse C1q protein (Complement Technology Cat #M099), biotin-conjugated (other)
chain 1: EDVCRAPNGKDGAPGNPGRPGRPGLKGERGEPGAAGIRTGIRGFKGDPGESGPPGKPGNVGLPGPSGPLGDSGPQGLKGVKGNPGNIRDQPRPAFSAIRQNPMTLGNVVIFDKVLTNQESPYQNHTGRFICAVPGFYYFNFQVISKWDLCLFIKSSSGGQPRDSLSFSNTNNKGLFQVLAGGTVLQLRRGDEVWIEKDPAKGRIYQGTEADSIFSGFLIFPSA
chain 2: QSSCTGPPGIPGIPGVPGVPGSDGQPGTPGIKGEKGLPGLAGDLGEFGEKGDPGIPGTPGKVGPKGPVGPKGTPGPSGPRGPKGDSGDYGATQKVAFSALRTINSPLRPNQVIRFEKVITNANENYEPRNGKFTCKVPGLYYFTYHASSRGNLCVNLVRGRDRDSMQKVVTFCDYAQNTFQVTTGGVVLKLEQEEVVHLQATDKNSLLGIEGANSIFTGFLLFPDMDA
chain 3: SAGCYGIPGMPGMPGAPGKDGHDGLQGPKGEPGIPAVPGTRGPKGQKGEPGMPGHRGKNGPRGTSGLPGDPGPRGPPGEPGVEGRYKQKHQSVFTVTRQTTQYPEANALVRFNSVVTNPQGHYNPSTGKFTCEVPGLYYFVYYTSHTANLCVHLNLNLARVASFCDHMFNSKQVSSGGVLLRLQRGDEVWLSVNDYNGMVGIEGSNSVFSGFLLFPD
  binding result: no binding (tested: C1q 2 µg/ml; 800-7.8 ng/well coated)
